Test results published in publication PMC8604404, “Kinesin-binding protein remodels the kinesin motor to prevent microtubule binding” (Science Advances, 2021).
Residue numbers refer to the chain shown, from its start.

T1: Kinesin-binding protein (KIFBP), wild type (UniProt Q96EK5 1-621)
T1 construct: also called KIFBP-WT; WT-KIFBP; source: E. coli BL21-DE3, purified (glutathione-Sepharose, PreScission cleavage, Superdex 200)
T1 sequence (looked up): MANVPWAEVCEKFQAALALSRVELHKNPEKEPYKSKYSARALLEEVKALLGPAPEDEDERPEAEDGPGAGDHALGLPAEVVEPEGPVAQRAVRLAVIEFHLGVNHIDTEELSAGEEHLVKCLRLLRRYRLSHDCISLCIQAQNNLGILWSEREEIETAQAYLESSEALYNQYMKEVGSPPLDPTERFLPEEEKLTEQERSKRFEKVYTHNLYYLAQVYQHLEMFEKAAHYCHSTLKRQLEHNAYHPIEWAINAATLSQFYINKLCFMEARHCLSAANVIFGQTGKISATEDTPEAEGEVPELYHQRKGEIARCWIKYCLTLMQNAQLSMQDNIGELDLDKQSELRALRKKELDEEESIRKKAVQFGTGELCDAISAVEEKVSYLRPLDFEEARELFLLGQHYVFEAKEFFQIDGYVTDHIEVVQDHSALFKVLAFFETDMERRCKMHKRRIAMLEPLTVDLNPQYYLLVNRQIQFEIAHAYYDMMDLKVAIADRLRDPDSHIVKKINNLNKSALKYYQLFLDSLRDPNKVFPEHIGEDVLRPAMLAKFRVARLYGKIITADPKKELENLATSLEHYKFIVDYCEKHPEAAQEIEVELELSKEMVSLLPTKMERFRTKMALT

B1: His6-KIF15-N375 (KIF15 motor domain, amino acids 1 to 375) (domain or fragment, human, UniProt Q9NS87 1-375, looked up)
chain: MAPGCKTELRSVTNGQSNQPSNEGDAIKVFVRIRPPAERSGSADGEQNLCLSVLSSTSLRLHSNPEPKTFTFDHVADVDTTQESVFATVAKSIVESCMSGYNGTIFAYGQTGSGKTFTMMGPSESDNFSHNLRGVIPRSFEYLFSLIDREKEKAGAGKSFLCKCSFIEIYNEQIYDLLDSASAGLYLREHIKKGVFVVGAVEQVVTSAAEAYQVLSGGWRNRRVASTSMNRESSRSHAVFTITIESMEKSNEIVNIRTSLLNLVDLAGSERQKDTHAEGMRLKEAGNINRSLSCLGQVITALVDVGNGKQRHVCYRDSKLTFLLRDSLGGNAKTAIIANVHPGSRCFGETLSTLNFAQRAKLIKNKAVVNEDTQG
notes: No cleavage of the tag is described; also called KIF15 (1 to 375); source: E. coli BL21-DE3, purified (Ni-NTA, Superdex 200)
B2: KIFBP-L14^m (Loop-14 mutant of KIFBP) (natural protein, UniProt Q96EK5 1-621, looked up)
chain: T1 sequence (looked up) with D460A, L461A, N462A, P463A, Q464A, Y465A
notes: The methods tell the construction of mCherry-KIFBP-L14^m only, not of GST-KIFBP-L14^m; also called GST-KIFBP-L14^m; source: E. coli BL21-DE3, purified (glutathione-Sepharose, PreScission cleavage, Superdex 200)
B3: His6-KIF18A-N363 (KIF18A motor domain, amino acids 1 to 363) (domain or fragment, human, UniProt Q8NI77 1-363, looked up)
chain: MSVTEEDLCHHMKVVVRVRPENTKEKAAGFHKVVHVVDKHILVFDPKQEEVSFFHGKKTTNQNVIKKQNKDLKFVFDAVFDETSTQSEVFEHTTKPILRSFLNGYNCTVLAYGATGAGKTHTMLGSADEPGVMYLTMLHLYKCMDEIKEEKICSTAVSYLEVYNEQIRDLLVNSGPLAVREDTQKGVVVHGLTLHQPKSSEEILHLLDNGNKNRTQHPTDMNATSSRSHAVFQIYLRQQDKTASINQNVRIAKMSLIDLAGSERASTSGAKGTRFVEGTNINRSLLALGNVINALADSKRKNQHIPYRNSKLTRLLKDSLGGNCQTIMIAAVSPSSVFYDDTYNTLKYANRAKDIKSSLKSNV
notes: No cleavage of the tag is described; also called KIF18A (1-363); source: E. coli BL21-DE3, purified (Ni-NTA, Superdex 200)

Assays:
Conditions in all cases: both partners purified
[1] = target: T1, Kinesin-binding protein (KIFBP), wild …; test: SEC; kinesin motor domain mixed with equimolar KIFBP, Superose 6, 10 mM K-Hepes pH 7.7, 50 mM KCl, 1 mM DTT, 0.2 mM MgATP; fractions analysed by SDS-PAGE
[2] = target: B1; test: pull-down; His6-kinesin motor domain immobilised on Ni-NTA agarose, 20 ug KIFBP protein or GST in 200 ul, 10 mM Hepes pH 7.4, 50 mM KCl, 10 mM imidazole, 30 min at 4°C; Coomassie gel, ratio of KIFBP to kinesin in the pellet
[3] = target: T1, Kinesin-binding protein (KIFBP), wild …; test: as above

Binder: B1
binding result [1]: binds

Binder: B2
fold reduction in binding against KIFBP-WT [2]: 2 fold

Binder: B3
binding result [3]: binds
